# Measurements from US20250179176A1, “ANTI-TIGIT ANTIBODIES AND USES OF THE SAME” (ARCUS BIOSCIENCES, INC., priority 2022, published 2025).
# Where two headings read alike, the source gives them in different places.
# B1: domvanalimab: anti-TIGIT antibody with engineered IgG1 Fc, reduced FcγR binding; heavy chain SEQ ID NO: 12, light chain SEQ ID NO: 13 (antibody)
# heavy: EVQLVESGGGLVQPGGSLRLSCAASGFTFSNFGMHWVRQAPGKGLEWVAFISSGSSSIYYADTVKGRFTISRDNAKNSLYLQMNSLRAEDTAVYYCARMRLDYYAMDYWGQGTMVTVSSASTKGPSVFPLAPSSKSTSGGTAALGCLVKDYFPEPVTVSWNSGALTSGVHTFPAVLQSSGLYSLSSVVTVPSSSLGTQTYICNVNHKPSNTKVDKKVEPKSCDKTHTCPPCPAPEAAGGPSVFLFPPKPKDTLMISRTPEVTCWVDVSHEDPEVKFNWYVDGVEVHNAKTKPREEQYNSTYRWSVLTVLHQDWLNGKEYKCKVSNKALPAPIEKTISKAKGQPREPQVYTLPPSRDELTKNQVSLTCLVKGFYPSDIAVEWESNGQPENNYKTTPPVLDSDGSFFLYSKLTVDKSRWQQGNVFSCSVMHEALHNHYTQKSLSLSPGK
# light: DIQMTQSPSSLSASVGDRVTITCRASKSISKYLAWYQQKPGKAPKLLIYSGSTLQSGVPSRFSGSGSGTDFTLTISSLQPEDFATYYCQQHNEYPWTFGGGTKVEIKRTVAAPSVFIFPPSDEQLKSGTASWCLLNNFYPREAKVQWKVDNALQSGNSQESVTEQDSKDSTYSLSSTLTLSKADYEKHKVYACEVTHQGLSSPVTKSFNRGEC
# Columns and labels:
# [1] = Phase 2 study in front-line NSCLC (ARC-7), safety
# CD8+ T cells = test: Ki67 on circulating CD8+ T cells (whole blood flow cytometry); format: in vivo, human
# Method: Quantitation of Ki-67, a nuclear protein associated with cell cycle, is a common method to evaluate cell proliferation, especially in human samples ex vivo.
# Immune cell profiling was conducted in whole blood by flow cytometry. For patients enrolled in the study described in Example 5 or Example 6, Ki67 changes on CD8^+ T cells were evaluated in whole blood by similar methods. Extracellular staining cocktails which included (minimally) CD3, CD8, and CD56 antibodies were added to 500 ul of whole blood and incubated on ice for 30 minutes. These markers were used to identify CD8^+ T cells (CD3^+CD56^− CD8^+) in both studies. For patients in the study of Example 6, extracellular cocktails also included CD45RA, CD39, and CD103 antibodies to identify an antigen-experienced memory CD8^+ T cell population (CD3^+CD56^−CD8^+CD45RA^−CD39^+CD103^+). Following extracellular staining, all blood samples were fixed and lysed using 1×BD FACSLyse buffer for 20 minutes on ice and then stored at −80° C. for up to 6 weeks. Upon thawing, samples were centrifuged at 400×g for 5 min to remove the lysing solution, washed in PBS, and then fixed and permeabilized in 100 ul of 1×FoxP3 Fixation Buffer for 1 hour at room temperature. […] The maximum fold change observed with the first cycle of treatment (between C1D1 and C2D29) was also determined for Ki67 expression on CD8^+ T cells.
# [2] = system: CD4+ T cells, CD8+ T cells, and Tregs; test: Peripheral T cell absolute counts and frequencies (Trucount, flow cytometry); format: in vivo, human; details: humans
# Method: White blood cell counts for 11 patients have been followed for up to 85 days of treatment. See Table 17 for additional patient details. Cell counts were assessed in pre- and post-dose whole blood patient samples using commercially available Trucount tubes (BD Biosciences). CD45, CD3, CD4, CD8, CD25, and CD127 antibodies were used to detect peripheral blood T cells and Tregs using flow cytometry. The antibody cocktail and […] of whole blood was added to Trucount tubes, vortexed, and incubated for 15 minutes at room temperature. The stained whole blood was lysed using 900µl of 1×BD FACs Lyse solution followed by vortexing, and incubation for 15 minutes at room temperature. Absolute counts were calculated as detailed in the Trucount technical data sheet. Briefly, the absolute count of a cell population (A) was obtained by dividing the number of positive cells events (X) by the number of bead events (Y), and then multiplying by the BD Trucount bead concentration (N/V, where N is the number of beads per test and V is the test volume). A=X/Y×N/V. Absolute cell count was then reported per μl of whole blood (WB).
# Absolute cell counts were not measured in all patients due to limited sample collection. […] Frequencies of different populations were determined relative to a parent population and each timepoint was normalized to baseline (C1D1 predose) to compute fold change.
# [3] = Population PK model and simulations; set-up: species or system human
# Method: All available PK data from this study were combined in a population PK model. […] The population PK model confirmed that the PK of domvanalimab was dose-linear over the dose range and consistent across the dosing regimens.
# Simulations were run with the model of n=500 patients each at 10 mg/kg Q2W, 15 mg/kg Q3W, and 20 mg/kg Q4W dosing regimens for 24 weeks.
# TIGIT = molecular target: T1, TIGIT (Homo sapiens, UniProt Q495A1); test: TIGIT receptor occupancy (RO) assay in whole blood by flow cytometry; format: in vivo
# T1 construct: select peripheral lymphocyte populations in whole blood collected from patients enrolled in a clinical study; endogenous in cells; host or cells: peripheral lymphocytes in whole blood of dosed patients
# T1 sequence (Q495A1 22-244): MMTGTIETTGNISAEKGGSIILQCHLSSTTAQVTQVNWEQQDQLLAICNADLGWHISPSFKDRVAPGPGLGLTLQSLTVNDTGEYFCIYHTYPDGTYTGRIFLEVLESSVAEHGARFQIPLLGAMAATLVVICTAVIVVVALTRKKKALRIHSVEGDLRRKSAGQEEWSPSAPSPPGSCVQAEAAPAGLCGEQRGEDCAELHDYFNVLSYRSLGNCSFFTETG
# Method: The RO assay is depicted in FIG. 3A and FIG. 3B.
# The RO of domvanalimab on select peripheral lymphocyte populations in whole blood collected from patients enrolled in a clinical study was assessed by flow cytometry using pre- and post-dose whole blood samples. […] RO was determined on various immune cell types using antibodies specific for surface markers CD3, CD4, CD8, CD56, FoxP3, and Ki67. RO was calculated as follows: […]
# [4] = all domvanalimab containing arms, 74 participants, initial cutoff
# [5] = monotherapy cohort (N=10), initial cutoff
# [6] = monotherapy cohort (N=10), Grade 1
molecule,measurement,setting,value
"zimberelimab: antagonistic PD-1 antibody, immune checkpoint inhibitor",Any TEAEs Leading to Death,"[1]; Table 4, initial cutoff",3 (8) n (%)
same,"SAE COVID-19, events","[1]; Table 7, initial cutoff",0 n
same,"SAE COVID-19, subjects","[1]; Table 7, initial cutoff",0 n (%)
same,Any TEAEs Leading to Death,"[1]; Table 10, later cutoff",3 (6.0) n (%)
same,"Any TEAEs Leading to Death, related to study treatment","[1]; Table 10, later cutoff",1 (2.0) n (%)
same,Grade 5 TEAEs related to study treatment (per physician assessment),[1]; safety population (149 patients),interstitial lung disease
same,proliferating CD8+ T cells,"CD8+ T cells; patients of the Example 6 study, PD-L1hi NSCLC",Increases
B1,depletion of peripheral T cells,[2],does not deplete
same,terminal half-life,[3]; estimated based on the population PK model,19.9 days
same,volume of distribution,[3]; population PK model,approximated plasma volume
same,dose linearity of PK,"[3]; population PK model, 0.5-20 mg/kg, Q2W, Q3W, Q4W",dose-linear
same,fatal case of myocarditis related to study treatment,"[1]; 74 participants, case received domvanalimab and zimberelimab",1.3%
same,fatal case of pneumonitis related to study treatment,"[1]; 74 participants, case received domvanalimab, zimberelimab and etrumadenant",1.3%
same,TEAE leading to domvanalimab dose modification/interruption,[1]; [4],27.0%
same,discontinued domvanalimab due to a TEAE,[1]; [4],4.0%
same,participants with TEAE Grade ≥3,[1]; [4],45.9%
same,participants with TEAEs Grade ≥3 related to domvanalimab,[1]; [4],10.8%
same,participants with at least 1 TEAE,[1]; [4],93.2%
same,participants with serious adverse events,[1]; [4],25.6%
same,participants with treatment related AE related to domvanalimab,[1]; [4],56.7%
same,participants with treatment related SAEs,[1]; [4],8.3%
same,SAE decreased appetite,monotherapy cohort (N=10),10%
same,SAE dyspnea,monotherapy cohort (N=10),10%
same,SAE hyponatremia,monotherapy cohort (N=10),10%
same,SAE peritonitis bacterial,monotherapy cohort (N=10),10%
same,SAE pleural effusion,monotherapy cohort (N=10),10%
same,discontinued domvanalimab due to a TEAE,monotherapy cohort (N=10),30%
same,dose delays/interruptions due to a TEAE,monotherapy cohort (N=10),10%
same,SAEs considered related to domvanalimab,[5],none
same,TEAE dyspnea regardless of causality,[5],30%
same,"all other TEAEs, each",[5],≤ 10%
same,participants with SAEs,[5],40%
same,participants with at least 1 TEAE,[5],100%
same,participants with domvanalimab-related TEAEs,[5],30%
same,total number of SAEs,[5],5
same,domvanalimab-related TEAE fatigue,[6],10%
same,domvanalimab-related TEAE hyperglycemia,[6],10%
same,domvanalimab-related TEAE nausea,[6],10%
same,domvanalimab-related TEAE pruritus,[6],10%
same,deaths due to treatment-related AEs,"whole study, initial cutoff",No deaths
same,proliferative marker (Ki67) on circulating CD8+ T cells,CD8+ T cells; patients of the Example 5 study,increases
same,RO across all dose groups,"TIGIT; 24 participants, 0.5-20 mg/kg Q2W/Q3W/Q4W, all post-dose time points",maximal RO
same,TIGIT receptor occupancy (RO),"TIGIT; Q2W, monotherapy and combination cohorts, all cell types, 1 hour after end of infusion of first dose",≥ 98%
same,RO at later time points,"TIGIT; Q2W, pre-dose Day 15, 29, 57, 85",complete RO was maintained
